According to patent US20070244048A1 (published 2007):
“And” between values parts separate entries of the source, which are not always exact repeats. Equal entries are not always repeated. Starred links: 1 amine or outer side, 2 acyl side, 3 side chain; linkers in the order of their positions; H or OH if unused. Non-standard residues stand in square brackets, D forms with d. *: point of attachment. Ttds = 1-amino-4,7,10-trioxa-13-tridecanamine succinimic acid spacer, O=C(CCC(=O)[*:2])NCCCOCCOCCOCCCN[*:1]; (PEG)2 40 kDa = branched PEG of 40 kDa linked via the Cys side-chain thiol (code C2 = Cys(PEG)2 40 kDa); Cholesteroyl = cholesterol linked to a cysteine residue via the side-chain thiol; Succinimide(1-Et,3-yl) = CCN1C(=O)CC(*)C1=O; Palmitoyl = CCCCCCCCCCCCCCCC(=O)*

B1: NMU15 (peptide)
peptide: Ac-C(Succinimide(1-Et,3-yl))[Ttds]FLFRPRN-NH2
SMILES: CCN1C(=O)CC(SC[C@H](NC(C)=O)C(=O)NCCCOCCOCCOCCCNC(=O)CCC(=O)N[C@@H](Cc2ccccc2)C(=O)N[C@@H](CC(C)C)C(=O)N[C@@H](Cc2ccccc2)C(=O)N[C@@H](CCCNC(=N)N)C(=O)N2CCC[C@H]2C(=O)N[C@@H](CCCNC(=N)N)C(=O)N[C@@H](CC(N)=O)C(N)=O)C1=O
B2: NMU25 (peptide)
peptide: Palmitoyl-C((PEG)2 40 kDa)FRVDEEFQSPFASQSRGYFLFRPRN-NH2
B3: NMU17 (peptide)
peptide: Ac-C(Succinimide(1-Et,3-yl))ASQSRGYFLFRPRN-NH2
SMILES: CCN1C(=O)CC(SC[C@H](NC(C)=O)C(=O)N[C@@H](C)C(=O)N[C@@H](CO)C(=O)N[C@@H](CCC(N)=O)C(=O)N[C@@H](CO)C(=O)N[C@@H](CCCNC(=N)N)C(=O)NCC(=O)N[C@@H](Cc2ccc(O)cc2)C(=O)N[C@@H](Cc2ccccc2)C(=O)N[C@@H](CC(C)C)C(=O)N[C@@H](Cc2ccccc2)C(=O)N[C@@H](CCCNC(=N)N)C(=O)N2CCC[C@H]2C(=O)N[C@@H](CCCNC(=N)N)C(=O)N[C@@H](CC(N)=O)C(N)=O)C1=O
B4: NMU12 (peptide)
peptide: Ac-C((PEG)2 40 kDa)FRVDEEFQSPFASQSRGYFLFRPRN-NH2
B5: NMU14 (peptide)
peptide: Ac-C((PEG)2 40 kDa)FRVDEEFQSPFASQSRGYF[dA]WRPRN-NH2
B6: NMU9 (peptide)
peptide: Ac-C((PEG)2 40 kDa)FRVDEEFQSPFASQSRGYFLFRPRN-NH2
B7: NMU16 (peptide)
peptide: Ac-C((PEG)2 40 kDa)[Ttds]FLFRPRN-NH2
B8: NMU11 (peptide)
peptide: Ac-C(Cholesteroyl)GYFLFRPRN-NH2
B9: NMU10 (peptide)
peptide: Ac-C(Cholesteroyl)FRVDEEFQSPFASQSRGYFLFRPRN-NH2
B10: NMU18 (peptide)
peptide: Ac-C((PEG)2 40 kDa)ASQSRGYFLFRPRN-NH2

Assays:
Experiment in all cases: cell-based or functional assay
[1] = target: rat NMUR2 (rat, UniProt Q9ESQ4 1-395)
rat NMUR2, sequence (Q9ESQ4 whole entry): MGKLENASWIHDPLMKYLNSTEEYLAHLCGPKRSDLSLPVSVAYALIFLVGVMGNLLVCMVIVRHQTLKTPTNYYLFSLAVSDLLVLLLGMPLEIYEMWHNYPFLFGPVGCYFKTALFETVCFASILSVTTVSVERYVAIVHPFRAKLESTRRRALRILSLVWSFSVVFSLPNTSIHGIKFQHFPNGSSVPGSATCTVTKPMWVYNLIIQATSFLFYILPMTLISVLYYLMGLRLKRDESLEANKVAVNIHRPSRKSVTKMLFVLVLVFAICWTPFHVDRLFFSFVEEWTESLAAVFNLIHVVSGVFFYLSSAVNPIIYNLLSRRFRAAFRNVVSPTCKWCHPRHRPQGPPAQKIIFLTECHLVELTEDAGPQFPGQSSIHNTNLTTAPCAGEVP

[2] = target: T1, rat NMUR1-TTG (rat, UniProt Q9JJI5 1-425)
T1 sequence (looked up): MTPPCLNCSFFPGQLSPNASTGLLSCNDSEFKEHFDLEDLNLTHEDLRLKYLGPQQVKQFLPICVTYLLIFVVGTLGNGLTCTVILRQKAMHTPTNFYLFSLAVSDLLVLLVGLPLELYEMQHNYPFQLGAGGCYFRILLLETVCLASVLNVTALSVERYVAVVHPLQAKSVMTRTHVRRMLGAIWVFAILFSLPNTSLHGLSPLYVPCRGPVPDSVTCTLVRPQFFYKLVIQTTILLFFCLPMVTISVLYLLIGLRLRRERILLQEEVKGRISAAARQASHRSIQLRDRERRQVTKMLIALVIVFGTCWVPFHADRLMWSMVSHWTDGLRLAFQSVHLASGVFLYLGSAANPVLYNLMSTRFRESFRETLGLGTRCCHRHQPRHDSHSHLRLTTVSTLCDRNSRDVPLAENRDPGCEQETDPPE

[3] = target: T2, rat NMUR1-ATG (rat, UniProt Q9JJI5 1-425)
T2 sequence (looked up): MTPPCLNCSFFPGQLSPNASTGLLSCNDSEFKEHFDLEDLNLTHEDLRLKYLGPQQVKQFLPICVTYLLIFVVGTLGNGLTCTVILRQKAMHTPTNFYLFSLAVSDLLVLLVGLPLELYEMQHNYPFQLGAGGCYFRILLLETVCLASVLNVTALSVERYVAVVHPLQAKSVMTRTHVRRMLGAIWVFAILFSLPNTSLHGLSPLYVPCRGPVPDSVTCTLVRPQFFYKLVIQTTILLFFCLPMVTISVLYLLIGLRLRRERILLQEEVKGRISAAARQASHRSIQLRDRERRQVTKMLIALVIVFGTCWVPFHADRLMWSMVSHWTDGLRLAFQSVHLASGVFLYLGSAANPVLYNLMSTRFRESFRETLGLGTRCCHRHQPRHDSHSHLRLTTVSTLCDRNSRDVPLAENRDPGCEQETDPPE

[4] = target: human NMUR2 (human, UniProt Q9GZQ4 1-415)
human NMUR2, sequence (Q9GZQ4 whole entry): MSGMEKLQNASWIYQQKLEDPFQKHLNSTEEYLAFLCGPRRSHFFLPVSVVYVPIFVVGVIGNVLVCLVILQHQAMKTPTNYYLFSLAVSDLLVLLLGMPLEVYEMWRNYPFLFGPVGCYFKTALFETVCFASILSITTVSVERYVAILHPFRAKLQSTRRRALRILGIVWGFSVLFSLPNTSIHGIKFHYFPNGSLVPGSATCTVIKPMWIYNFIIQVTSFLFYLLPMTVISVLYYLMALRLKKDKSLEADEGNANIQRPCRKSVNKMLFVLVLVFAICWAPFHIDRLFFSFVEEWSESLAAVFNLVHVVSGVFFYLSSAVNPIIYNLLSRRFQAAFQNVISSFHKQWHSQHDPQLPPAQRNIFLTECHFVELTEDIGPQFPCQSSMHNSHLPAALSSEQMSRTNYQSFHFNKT

[5] = target: T3, human NMUR1 (human, UniProt Q9HB89 1-426)
T3 sequence (looked up): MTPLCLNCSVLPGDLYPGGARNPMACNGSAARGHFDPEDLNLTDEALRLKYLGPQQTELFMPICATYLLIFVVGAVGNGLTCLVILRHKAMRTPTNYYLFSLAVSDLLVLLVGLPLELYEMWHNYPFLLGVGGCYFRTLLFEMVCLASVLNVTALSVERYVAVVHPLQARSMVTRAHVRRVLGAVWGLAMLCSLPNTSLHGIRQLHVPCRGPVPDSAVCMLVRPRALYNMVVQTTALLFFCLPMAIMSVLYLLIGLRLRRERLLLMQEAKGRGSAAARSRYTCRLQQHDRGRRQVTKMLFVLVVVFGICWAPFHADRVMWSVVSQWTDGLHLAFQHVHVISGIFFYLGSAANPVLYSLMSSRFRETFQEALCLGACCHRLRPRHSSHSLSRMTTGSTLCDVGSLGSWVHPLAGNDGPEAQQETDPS

[6] = target: mouse NMUR2 (mouse, UniProt Q8BZ39 1-395)
mouse NMUR2, sequence (Q8BZ39 whole entry): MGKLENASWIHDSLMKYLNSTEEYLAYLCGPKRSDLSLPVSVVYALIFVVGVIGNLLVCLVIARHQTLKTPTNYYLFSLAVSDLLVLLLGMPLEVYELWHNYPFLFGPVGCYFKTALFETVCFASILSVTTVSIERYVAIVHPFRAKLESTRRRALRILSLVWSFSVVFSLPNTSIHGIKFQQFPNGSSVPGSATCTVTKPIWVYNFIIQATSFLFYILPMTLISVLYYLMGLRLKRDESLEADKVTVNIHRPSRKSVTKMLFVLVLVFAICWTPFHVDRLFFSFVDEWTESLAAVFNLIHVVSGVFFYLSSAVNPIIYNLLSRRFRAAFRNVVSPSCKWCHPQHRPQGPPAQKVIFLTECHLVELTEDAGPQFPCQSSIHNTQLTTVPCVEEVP

[7] = target: T4, mouse NMUR1-CTG (mouse, UniProt O55040 1-428)
T4 sequence (looked up): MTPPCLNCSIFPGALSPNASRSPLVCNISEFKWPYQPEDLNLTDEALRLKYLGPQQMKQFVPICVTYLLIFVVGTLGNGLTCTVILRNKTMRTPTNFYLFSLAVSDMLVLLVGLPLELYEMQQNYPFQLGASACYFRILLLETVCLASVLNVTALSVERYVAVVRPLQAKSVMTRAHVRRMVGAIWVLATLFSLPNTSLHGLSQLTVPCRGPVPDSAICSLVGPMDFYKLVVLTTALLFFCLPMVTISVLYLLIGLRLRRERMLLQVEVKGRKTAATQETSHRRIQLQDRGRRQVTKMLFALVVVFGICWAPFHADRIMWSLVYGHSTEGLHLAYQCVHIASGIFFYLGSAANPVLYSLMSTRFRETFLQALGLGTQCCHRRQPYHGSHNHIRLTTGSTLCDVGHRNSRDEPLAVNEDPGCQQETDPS

[8] = target: T5, mouse NMUR1-ATG (mouse, UniProt O55040 1-428)
T5 sequence (looked up): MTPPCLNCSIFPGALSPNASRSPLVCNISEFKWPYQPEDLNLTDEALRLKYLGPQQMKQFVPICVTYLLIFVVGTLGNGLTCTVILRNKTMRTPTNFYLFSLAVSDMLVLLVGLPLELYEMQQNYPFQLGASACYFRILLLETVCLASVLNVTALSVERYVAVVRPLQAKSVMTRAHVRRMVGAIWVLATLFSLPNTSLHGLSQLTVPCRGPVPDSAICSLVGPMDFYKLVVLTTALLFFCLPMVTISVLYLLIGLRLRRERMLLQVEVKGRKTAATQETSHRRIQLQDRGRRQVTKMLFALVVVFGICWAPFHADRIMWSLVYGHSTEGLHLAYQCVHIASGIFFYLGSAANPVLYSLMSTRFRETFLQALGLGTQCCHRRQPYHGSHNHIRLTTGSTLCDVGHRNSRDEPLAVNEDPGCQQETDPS

Row | Binder | % Activity (FLIPR) [1] [%] | EC50 (FLIPR) [1] [nM] | % Activity (FLIPR) [2] [%] | EC50 (FLIPR) [2] [nM] | % Activity (FLIPR) [3] [%] | EC50 (FLIPR) [3] | % Activity (FLIPR) [4] [%] | EC50 (FLIPR) [4] [nM] | % Activity (FLIPR) [5] [%] | EC50 (FLIPR) [5] [nM] | % Activity (FLIPR) [6] [%] | EC50 (FLIPR) [6] [nM] | % Activity (FLIPR) [7] [%] | EC50 (FLIPR) [7] [nM] | % Activity (FLIPR) [8] [%] | EC50 (FLIPR) [8] [nM]
1 | B1 | 100 | 2.2 | 108 | 24.6 | 100 | 4.2 nM | 101 | 4.2 | 91.5 | 7.7 | 100 | 0.6 | 100 | 4 | 100 | 1.5
2 | B2 | 96.4 | 37.8 | 93.5 | 81 | 99.6 | 20.1 nM | 98.8 | 44.1 | 83 | 168 | 100 | 18.8 | 100 | 60.3 | 100 | 10.2
3 | B3 | 100 | 1.2 | 105 | 4.9 | 100 | 0.9 nM | 99.8 | 1.5 | 100 | 5 | 100 | 0.5 | 117 | 2.9 | 100 | 1.2
4 | B4 | 43.4 | 1000 |  |  | 52.7 | 1000 nM | 89 | 119 | 92.9 | 58.6 | 94.1 | 19.1 | 68.5 | 407 | 98.4 | 72
5 | B5 |  |  | 36.7 | > 1000 |  | 240 nM and 133 nM | 0 | > 1000 | 95.7 | 104 | 0 | > 1000 | 24.8 | > 1000 | 60.8 | 584
6 | B6 | 100 | 4.5 |  |  | 100 | 9.7 nM | 94.3 | 91.1 | 94.4 | 50.6 | 100 | 19 | 71.7 | 1000 | 95 | 45.7
7 | B7 | 86.9 | 315 | 34.6 | 1000 | 75.4 | 418 nM | 75 | 1000 | 74 | 1000 | 97.4 | 138 | 57.2 | 651 | 100 | 24.1
8 | B8 | 33.2 | 1000 |  |  | 50.9 | 316 nM | 37.3 | 1000 | 20.6 | 1000 | 70.5 | 1000 | 65 | 600 | 81.3 | 1000
9 | B9 | 97.4 | 41.5 |  |  | 80.1 | 201 nM | 31.3 | 1000 | 26.6 | 1000 | 70.5 | 1000 | 69.2 | 1000 | 76.8 | 173
10 | B10 | 96.7 | 63 | 90.7 | 105 | 95.9 | 28.6 nM | 101 | 65.7 | 97.1 | 68.1 | 100 | 50.2 | 57.7 | 693 | 100 | 15.2
